The target in this test is androgen receptor (AR) (human (endogenous in LNCaP and C4-2)) (UniProt P10275). Nature of the test: co-IP; lysates (RIPA buffer) of LNCaP and C4-2 cells transfected with siNC or siKMT2D; immunoprecipitation with primary antibody and Protein A/G agarose at 4 °C, western blot for AR and E3 ubiquitin ligases; which protein was precipitated is not stated for this panel.
Sequence of UniProt P10275 (P10275 whole entry): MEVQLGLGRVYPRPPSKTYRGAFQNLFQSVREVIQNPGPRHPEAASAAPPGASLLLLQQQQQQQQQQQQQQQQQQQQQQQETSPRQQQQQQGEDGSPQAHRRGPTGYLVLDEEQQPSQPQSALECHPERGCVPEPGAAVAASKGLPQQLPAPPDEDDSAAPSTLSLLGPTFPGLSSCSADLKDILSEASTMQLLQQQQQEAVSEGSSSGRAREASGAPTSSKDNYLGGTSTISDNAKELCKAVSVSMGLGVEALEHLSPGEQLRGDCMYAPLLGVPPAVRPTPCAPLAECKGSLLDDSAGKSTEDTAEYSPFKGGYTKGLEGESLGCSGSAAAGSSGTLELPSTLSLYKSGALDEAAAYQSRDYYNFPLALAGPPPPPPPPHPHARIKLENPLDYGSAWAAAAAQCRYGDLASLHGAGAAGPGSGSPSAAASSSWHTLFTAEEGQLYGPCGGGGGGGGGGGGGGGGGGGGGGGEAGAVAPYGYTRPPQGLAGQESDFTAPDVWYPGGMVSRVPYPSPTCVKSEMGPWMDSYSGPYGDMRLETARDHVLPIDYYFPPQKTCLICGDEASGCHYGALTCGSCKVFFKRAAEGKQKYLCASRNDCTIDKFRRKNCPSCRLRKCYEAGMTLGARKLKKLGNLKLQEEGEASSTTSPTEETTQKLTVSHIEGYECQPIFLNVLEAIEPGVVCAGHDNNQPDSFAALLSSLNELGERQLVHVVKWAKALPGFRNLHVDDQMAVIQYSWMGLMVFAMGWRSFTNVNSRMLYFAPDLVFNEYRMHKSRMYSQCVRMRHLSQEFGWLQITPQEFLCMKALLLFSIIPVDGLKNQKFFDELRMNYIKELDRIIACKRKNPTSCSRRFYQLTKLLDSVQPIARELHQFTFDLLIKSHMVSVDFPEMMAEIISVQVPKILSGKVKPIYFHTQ

Regarding “Speckle Type BTB/POZ protein (SPOP) (from UniProt O43791 1-374) (natural protein)”, the fold change of SPOP bound to AR after KMT2D knockdown against control (C4-2 cells) is 1.57 fold and the fold change of SPOP bound to AR after KMT2D knockdown against control (LNCaP cells) stood at 1.41 fold.

Source of the values: article PMC12623541.
